Values quoted from earlier work, collected in patent US20250282866A1, “TREATMENT OF DISEASES RELATED TO ATP-BINDING CASSETTE TRANSPORTER 1 DYSFUNCTION USING TREM2 AGONISTS” (VIGIL NEUROSCIENCE, INC., priority 2020, published 2025).
Substitutions are numbered along the chain they refer to. Names may count otherwise.

T1: human TREM2 (Homo sapiens, UniProt Q9NZC2)
T1 sequence (Q9NZC2 19-230): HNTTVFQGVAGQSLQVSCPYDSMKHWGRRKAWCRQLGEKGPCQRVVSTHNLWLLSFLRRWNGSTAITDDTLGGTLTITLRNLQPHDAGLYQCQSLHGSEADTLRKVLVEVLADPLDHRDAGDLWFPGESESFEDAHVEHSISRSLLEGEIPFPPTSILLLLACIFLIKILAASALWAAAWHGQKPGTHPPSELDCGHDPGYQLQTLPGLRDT

B1: V40: 6E7 variant: VH T30G, T58V, F110S; VL N56L, S93R (antibody, V domains shown)
VH: EVQLVQSGAEVKKPGESLKISCKGSGYSFGSYWIAWVRQMPGKGLEWMGIIYPGDSDVRYSPSFQGQVTISADKSISTAYLQWSSLKASDTAMYFCARQRTFYYDSSDYSDYWGQGTLVTVSS
VL: DIQMTQSPSSVSASVGDRVTITCRASQGISSWLAWYQQKPGKAPKLLIYAASSLQLGVPSRFSGSGSGTDFTLTISSLQPEDFATYFCQQADRFPRTFGQGTKLEIK
B2: V64: 6E7 variant: VH T30Q, Q99G; VL Q55A, F94Y (antibody, V domains shown)
VH: B1 VH with G30Q, V58T, Q99G, S110F
VL: B1 VL with Q55A, L56N, R93S, F94Y
B3: V75: 6E7 variant: VH Q99G; VL N56A, F94Y (antibody, V domains shown)
VH: B1 VH with G30T, V58T, Q99G, S110F
VL: B1 VL with L56A, R93S, F94Y
B4: V48: 6E7 variant: VH T30G, T58V, Q99M; VL N56T, F94L (antibody, V domains shown)
VH: B1 VH with Q99M, S110F
VL: B1 VL with L56T, R93S, F94L
B5: V49: 6E7 variant: VH T30N, I50T, Y60L, Q99S; VL L54R, F94Y (antibody, V domains shown)
VH: B1 VH with G30N, I50T, V58T, Y60L, Q99S, S110F
VL: B1 VL with L54R, L56N, R93S, F94Y
B6: V74: 6E7 variant: VH T30A, T58V, Q99G; VL N56L (antibody, V domains shown)
VH: B1 VH with G30A, Q99G, S110F
VL: B1 VL with R93S
B7: V51: 6E7 variant: VH T58V, Q99G, Y112N; VL L54R (antibody, V domains shown)
VH: B1 VH with G30T, Q99G, S110F, Y112N
VL: B1 VL with L54R, L56N, R93S
B8: V63: 6E7 variant: VH T30R, Q99S; VL N56R, S93R (antibody, V domains shown)
VH: B1 VH with G30R, V58T, Q99S, S110F
VL: B1 VL with L56R
B9: V52: 6E7 variant: VH T30E, Q99G; VL N56R, S93R (antibody, V domains shown)
VH: B1 VH with G30E, V58T, Q99G, S110F
VL: B1 VL with L56R
B10: V50: 6E7 variant: VH T30G, I50V, F110L; VL L54R, F94L (antibody, V domains shown)
VH: B1 VH with I50V, V58T, S110L
VL: B1 VL with L54R, L56N, R93S, F94L
B11: V84: 6E7 variant: VH S28G, F110S; VL A50G (antibody, V domains shown)
VH: B1 VH with S28G, G30T, V58T
VL: B1 VL with A50G, L56N, R93S
B12: V76: 6E7 variant: VH T30G, S63E, F110S; VL N56K (antibody, V domains shown)
VH: B1 VH with V58T, S63E
VL: B1 VL with L56K, T69R, R93S
B13: V61: 6E7 variant: VH T30S, S61N, Q99G; VL Q55V, F94L (antibody, V domains shown)
VH: B1 VH with G30S, V58T, S61N, Q99G, S110F
VL: B1 VL with Q55V, L56N, R93S, F94L
B14: V72: 6E7 variant: VH A35G, Q99G; VL Q55V, F94Y (antibody, V domains shown)
VH: B1 VH with G30T, A35G, V58T, Q99G, S110F
VL: B1 VL with Q55V, L56N, R93S, F94Y
B15: V62: 6E7 variant: VH T30G, S61A, D108G; VL N56R, Q89G (antibody, V domains shown)
VH: B1 VH with V58T, S61A, D108G, S110F
VL: B1 VL with L56R, Q89G, R93S
B16: V73: 6E7 variant: VH T30G, S63G, Q99G; VL L54R, F94Y (antibody, V domains shown)
VH: B1 VH with V58T, S63G, Q99G, S110F
VL: B1 VL with L54R, L56N, R93S, F94Y
B17: V60: 6E7 variant: VH S28H, T58V, F110S; VL N56R, Q89G (antibody, V domains shown)
VH: B1 VH with S28H, G30T
VL: B1 VL with L56R, Q89G, R93S

Molecular target: T1, human TREM2
Settings: 1st screen; values printed without asterisk; concentration 110 nM or 10 nM (footnote a not given)

Row | Molecule | Binding Signal (fold over 6E7 Parental antibody) 1st screen 110 nM or 10 nM
1 | B1 | 4.48 fold over 6E7 Parental antibod
2 | B2 | 5.41 fold over 6E7 Parental antibod
3 | B3 | 4.64 fold over 6E7 Parental antibod
4 | B4 | 2.42 fold over 6E7 Parental antibod
5 | B5 | 6.51 fold over 6E7 Parental antibod
6 | B6 | 3.94 fold over 6E7 Parental antibod
7 | B7 | 2.81 fold over 6E7 Parental antibod
8 | B8 | 3.76 fold over 6E7 Parental antibod
9 | B9 | 3.00 fold over 6E7 Parental antibod
10 | B10 | 4.10 fold over 6E7 Parental antibod
11 | B11 | 1.44 fold over 6E7 Parental antibod
12 | B12 | 4.57 fold over 6E7 Parental antibod
13 | B13 | 5.08 fold over 6E7 Parental antibod
14 | B14 | 3.64 fold over 6E7 Parental antibod
15 | B15 | 2.49 fold over 6E7 Parental antibod
16 | B16 | 5.12 fold over 6E7 Parental antibod
17 | B17 | 3.26 fold over 6E7 Parental antibod

Same assay, conditions: 2nd screen, 2 nM

Row | Molecule | Binding Signal (fold over 6E7 Parental antibody) 2nd screen 2 nM
18 | B1 | 3.41 fold over 6E7 Parental antibod
19 | B2 | 4.88 fold over 6E7 Parental antibod
20 | B3 | 3.74 fold over 6E7 Parental antibod
21 | B4 | 2.30 fold over 6E7 Parental antibod
22 | B5 | 5.02 fold over 6E7 Parental antibod
23 | B6 | 2.54 fold over 6E7 Parental antibod
24 | B7 | 1.83 fold over 6E7 Parental antibod
25 | B8 | 4.91 fold over 6E7 Parental antibod
26 | B9 | 1.78 fold over 6E7 Parental antibod
27 | B10 | 3.39 fold over 6E7 Parental antibod
28 | B11 | 1.45 fold over 6E7 Parental antibod
29 | B12 | 4.34 fold over 6E7 Parental antibod
30 | B13 | 3.63 fold over 6E7 Parental antibod
31 | B14 | 2.50 fold over 6E7 Parental antibod
32 | B15 | 1.87 fold over 6E7 Parental antibod
33 | B16 | 4.17 fold over 6E7 Parental antibod
34 | B17 | 3.35 fold over 6E7 Parental antibod

Same assay, conditions: 2nd screen, 10 nM

Row | Molecule | Binding Signal (fold over 6E7 Parental antibody) 2nd screen 10 nM
35 | B1 | 4.16 fold over 6E7 Parental antibod
36 | B2 | 5.48 fold over 6E7 Parental antibod
37 | B3 | 4.52 fold over 6E7 Parental antibod
38 | B4 | 2.54 fold over 6E7 Parental antibod
39 | B5 | 6.58 fold over 6E7 Parental antibod
40 | B6 | 4.01 fold over 6E7 Parental antibod
41 | B7 | 3.18 fold over 6E7 Parental antibod
42 | B8 | 3.71 fold over 6E7 Parental antibod
43 | B9 | 3.09 fold over 6E7 Parental antibod
44 | B10 | 4.16 fold over 6E7 Parental antibod
45 | B11 | 1.62 fold over 6E7 Parental antibod
46 | B12 | 4.93 fold over 6E7 Parental antibod
47 | B13 | 5.22 fold over 6E7 Parental antibod
48 | B14 | 4.01 fold over 6E7 Parental antibod
49 | B15 | 2.89 fold over 6E7 Parental antibod
50 | B16 | 5.44 fold over 6E7 Parental antibod
51 | B17 | 3.63 fold over 6E7 Parental antibod
